From the supplement of paper PMC7877785 come the findings set out here.

± gives the uncertainty stated by the source.

The data set in a line: self-splicing fitness, log relative to wild type (ln ratio); higher = more splicing; Tetrahymena group I intron in knt gene, E. coli kanamycin selection, DiMSum; sequences stand for … in CUCUCU…GGAGGGAAAAGUUAUCAGGCAUGCACCUGGUAGCUAGUCUUUAAACCAAUAGAUUGCAUCGGUUUAAAAGGCAAGACCGUCAAAUUGCGGGAAAGGGGUCAACAGCCGUUCAGUACCAAGUCUCAGGGGAAACUUUGAGAUGGCCUUGCAAAGGGUAUGGUAAUAAGCUGACGGACAUGGUCCUAACCACGCAGCCAAGUCCUAAGUCAACAGAUCUUCUGUUGAUAUGGAUGCAGUUCACAGACUAAAUGUCGGUCGGGGAAGAUGUAUUCUUCUCAUAAGAUAUAGUCGGACCUCUCCUUAAUGGGAGCUAGCGGAUGAAGUGAUGCAACACUGGAGCCGCUGGGAACUAAUUUGUAUGCGAAAGUAUAUUGAUUAGUUUUGGAGUACUCGUGGUCG
Summed up: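 Fitness was computed with DiMSum as the error-weighted combination of replicate fold changes, kanamycin versus none, each normalised to wild type. The library randomised all eight intron nucleotides of the P1ex region, with the intron placed in the knt kanamycin-resistance gene on pET-22b(+) in E. coli BL21(DE3). Six replicate transformations were grown overnight at 37°C or 30°C on LB agar with or without 25 μg/mL kanamycin, plus 100 μg/mL carbenicillin, 50 μM IPTG and 0.2% rhamnose. Pooled colonies were amplicon-sequenced on an Illumina HiSeq 2500.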

Turning to AUCCAGCAAUAUUACGCUUU, the “self-splicing fitness (ln)” value by setting is: (30 °C) -0.879 ± 0.076; (37 °C) -0.641 ± 0.086. For GAGAAGCAAUAUUACGAUAC, in that order: -1.73 ± 0.13 and -0.221 ± 0.18. On to AGAGAGCAAUAUUACGUGGC, for which the “self-splicing fitness (ln)” value is, setting by setting: (30 °C) -3.07 ± 0.25; (37 °C) -1.59 ± 0.35. In the case of AGCGAGCAAUAUUACGUGGA, the “self-splicing fitness (ln)” value runs as follows: (30 °C) -2.95 ± 0.22; (37 °C) -2.81 ± 0.16. The like results for CAGGAGCAAUAUUACGAAAG were, in that order, -1.8 ± 0.17 and -1.11 ± 0.23.

As for AUGUAGCAAUAUUACGAAGU, the “self-splicing fitness (ln)” value (30 °C) is -3.07 ± 0.23 and the “self-splicing fitness (ln)” value (37 °C) was -0.943 ± 0.18. Take CCGGAGCAAUAUUACGUUAA: the “self-splicing fitness (ln)” value (30 °C) is -2.42 ± 0.26 and the “self-splicing fitness (ln)” value (37 °C) is -1.93 ± 0.41. For the sequence CCUGAGCAAUAUUACGCUAG, the “self-splicing fitness (ln)” value is -3.02 ± 0.19 (30 °C) and -1.27 ± 0.17 (37 °C). For AUCUAGCAAUAUUACGCAAU, in that order: -2.02 ± 0.089 and -1.37 ± 0.09.

With UAGGAGCAAUAUUACGAUUC, the “self-splicing fitness (ln)” value (30 °C) is -2.08 ± 0.37.

Take GACAAGCAAUAUUACGACAU: the “self-splicing fitness (ln)” value was -0.624 ± 0.011 (30 °C) and -0.191 ± 0.032 (37 °C).

Turning to GACUAGCAAUAUUACGAUUA, the “self-splicing fitness (ln)” value (30 °C) is -0.841 ± 0.069 and the “self-splicing fitness (ln)” value (37 °C) is -0.413 ± 0.082.

Regarding ACCAAGCAAUAUUACGAAGU, the “self-splicing fitness (ln)” value by setting is: (30 °C) -3.09 ± 0.14; (37 °C) -1.31 ± 0.14.

For the sequence CGCGAGCAAUAUUACGACUG, the “self-splicing fitness (ln)” value (30 °C) is 0.265 ± 0.17 and the “self-splicing fitness (ln)” value (37 °C) was determined as 0.0174 ± 0.17. For AACUAGCAAUAUUACGAUCU, in that order: -0.146 ± 0.082 and 0.426 ± 0.098.

CAGUAGCAAUAUUACGGGAA: the “self-splicing fitness (ln)” value runs as follows: (30 °C) -2.93 ± 0.26; (37 °C) -2.44 ± 0.25. For GCAGAGCAAUAUUACGUCGU, in that order: -2.88 ± 0.18 and -0.722 ± 0.16.

In the case of GACAAGCAAUAUUACGUACC, the “self-splicing fitness (ln)” value was -1.71 ± 0.13 (30 °C) and -1.11 ± 0.12 (37 °C). For AAAGAGCAAUAUUACGGAGA, in that order: -2.99 ± 0.22 and -1.98 ± 0.21.

In the case of UAGAAGCAAUAUUACGCUGG, the “self-splicing fitness (ln)” value runs as follows: (30 °C) -1.38 ± 0.16; (37 °C) -0.436 ± 0.18. Turning to UCCAAGCAAUAUUACGCCAU, the “self-splicing fitness (ln)” value reads like this: (30 °C) -4.34 ± 0.28; (37 °C) -3.21 ± 0.27. For ACCAAGCAAUAUUACGGAAU, in that order: -3.05 ± 0.11 and -1.15 ± 0.096. The like results for CCCUAGCAAUAUUACGUGUU were, in that order, -4.27 ± 0.18 and -3.37 ± 0.17. The like results for GAGUAGCAAUAUUACGUCUG were, in that order, -0.699 ± 0.12 and -0.363 ± 0.15. In the case of CAGGAGCAAUAUUACGUGGC, the “self-splicing fitness (ln)” value (37 °C) is -1.5 ± 0.38. Regarding GUAGAGCAAUAUUACGCAUU, the “self-splicing fitness (ln)” value is, setting by setting: (30 °C) -2.45 ± 0.18; (37 °C) -0.619 ± 0.25.

CAUGAGCAAUAUUACGUUAU: the “self-splicing fitness (ln)” value runs as follows: (30 °C) -3.12 ± 0.14; (37 °C) -2.54 ± 0.24. The like results for UACCAGCAAUAUUACGAGAG were, in that order, -2.64 ± 0.12 and -1.12 ± 0.081. With UCGAAGCAAUAUUACGAUCG, the “self-splicing fitness (ln)” value is -1.25 ± 0.099 (30 °C) and -0.609 ± 0.12 (37 °C). Turning to CGACAGCAAUAUUACGGGCU, the “self-splicing fitness (ln)” value is -4.16 ± 0.2 (30 °C) and -2.53 ± 0.15 (37 °C). As for AUUGAGCAAUAUUACGCAGU, the “self-splicing fitness (ln)” value (30 °C) is -2.95 ± 0.36 and the “self-splicing fitness (ln)” value (37 °C) is -2.11 ± 0.38.

With CCAAAGCAAUAUUACGGGAU, the “self-splicing fitness (ln)” value (30 °C) was -3.6 ± 0.15 and the “self-splicing fitness (ln)” value (37 °C) is -2.37 ± 0.14. The like results for CAUUAGCAAUAUUACGGGCC were, in that order, -2.71 ± 0.23 and -2.95 ± 0.43. On to CCCAAGCAAUAUUACGGCCU, for which the “self-splicing fitness (ln)” value is -3.6 ± 0.35 (30 °C) and -3.09 ± 0.37 (37 °C). For UGCGAGCAAUAUUACGGGUA, in that order: -1.19 ± 0.18 and -0.698 ± 0.21. Turning to AAAUAGCAAUAUUACGGUAG, the “self-splicing fitness (ln)” value (30 °C) is -3.63 ± 0.22 and the “self-splicing fitness (ln)” value (37 °C) was -2.62 ± 0.23. The like results for AGAAAGCAAUAUUACGGGGG were, in that order, -3.3 ± 0.15 and -2.71 ± 0.17. As to AGGAAGCAAUAUUACGUCCU, the “self-splicing fitness (ln)” value is -3.89 ± 0.16 (30 °C) and -2.04 ± 0.15 (37 °C). For the sequence CAUAAGCAAUAUUACGGAUA, the “self-splicing fitness (ln)” value reads like this: (30 °C) -3.62 ± 0.19; (37 °C) -2.87 ± 0.18. The like results for UUUCAGCAAUAUUACGGUCA were, in that order, 0.101 ± 0.12 and 0.222 ± 0.13. As for AGUCAGCAAUAUUACGGCUC, the “self-splicing fitness (ln)” value runs as follows: (30 °C) -3.84 ± 0.43; (37 °C) -1.54 ± 0.45.

CAUAAGCAAUAUUACGAGCC: the “self-splicing fitness (ln)” value (30 °C) was -3.21 ± 0.35 and the “self-splicing fitness (ln)” value (37 °C) was -2.41 ± 0.44. In the case of GACCAGCAAUAUUACGGGGA, the “self-splicing fitness (ln)” value is, setting by setting: (30 °C) -0.82 ± 0.074; (37 °C) -0.839 ± 0.087. For the sequence GGGUAGCAAUAUUACGCAAC, the “self-splicing fitness (ln)” value (37 °C) is -2.43 ± 0.44. Take AGCCAGCAAUAUUACGGCUU: the “self-splicing fitness (ln)” value is, setting by setting: (30 °C) -4.74 ± 0.41; (37 °C) -2.89 ± 0.21.

As for AGCUAGCAAUAUUACGUUAG, the “self-splicing fitness (ln)” value runs as follows: (30 °C) -3.14 ± 0.22; (37 °C) -2.56 ± 0.22. As to AUGGAGCAAUAUUACGACUA, the “self-splicing fitness (ln)” value by setting is: (30 °C) -1.08 ± 0.14; (37 °C) -1.33 ± 0.16. For AUAAAGCAAUAUUACGUGUU, in that order: -2.97 ± 0.071 and -1.11 ± 0.068. For the sequence CUAUAGCAAUAUUACGGUUC, the “self-splicing fitness (ln)” value is -3.27 ± 0.25 (30 °C) and -2.12 ± 0.39 (37 °C). For the sequence ACGUAGCAAUAUUACGCCUA, the “self-splicing fitness (ln)” value reads like this: (30 °C) -0.946 ± 0.1; (37 °C) -0.412 ± 0.099. Regarding UUGUAGCAAUAUUACGGAGU, for the setting “37 °C”, the “self-splicing fitness (ln)” value was -2.5 ± 0.36. In the case of CACGAGCAAUAUUACGUGAA, the “self-splicing fitness (ln)” value is -3.63 ± 0.14 (30 °C) and -2.49 ± 0.12 (37 °C). In the case of UAAUAGCAAUAUUACGGUAG, the “self-splicing fitness (ln)” value (30 °C) was -3.43 ± 0.14 and the “self-splicing fitness (ln)” value (37 °C) was -2.05 ± 0.14. For UAGAAGCAAUAUUACGUGCG, in that order: -0.462 ± 0.082 and -0.125 ± 0.098. The like results for GUGGAGCAAUAUUACGUGAU were, in that order, -2.49 ± 0.12 and -1.6 ± 0.12. As to CCUGAGCAAUAUUACGUGCG, the “self-splicing fitness (ln)” value was -3.69 ± 0.22 (30 °C) and -1.04 ± 0.16 (37 °C). For CCACAGCAAUAUUACGUACU, in that order: -2.01 ± 0.12 and -1.93 ± 0.19. For AAAGAGCAAUAUUACGAACG, in that order: -3.87 ± 0.21 and -1.74 ± 0.13.

For the sequence GUUCAGCAAUAUUACGUGUC, the “self-splicing fitness (ln)” value (30 °C) was -0.83 ± 0.097 and the “self-splicing fitness (ln)” value (37 °C) was 0.00179 ± 0.094. CCACAGCAAUAUUACGUAUU: the “self-splicing fitness (ln)” value is, setting by setting: (30 °C) -3.57 ± 0.15; (37 °C) -2.01 ± 0.14.

For the sequence GUUCAGCAAUAUUACGUAAA, the “self-splicing fitness (ln)” value was found to be 0.0969 ± 0.077 (30 °C) and 0.494 ± 0.11 (37 °C).
